Laboratory results: the DeepSol protein solubility set

Assay: soluble on expression in E. coli; label from the status in PepcDB or PDB records

Sequence | soluble on expression in E. coli
MLETKDLNLFLGNKHVLKNISLSIPVRGEIIGIMGPNGAGKSSLIKSLIGEFNATGTKLLYNKPIQQQLQHITYIPQKAHIDLDFPISVEQVILSGCYKEIGWFRRPNKSARDKLKQLLSDLELESLRHRQISELSGGQLQRVLVARALMSESEVYFLDEPFVGIDFSSEKLIMTKIENLKQQGKLILIIHHDLSKAKQYFDRIILLNQTLRYFGDSEEAMSVTRLNETFMSSTDCSDPSQRSNITC | not soluble
MLEVIATCLEDVKRIESAGGKRIELISSYTEGGLTPSYAFIKKAVEVVSIPIHVMIRPHAKSFTYTEEEIEMMKEDIIVAQKLGAAGVVLGVLNERNEVDEEKLADLLSVVDGINVTYHRAIDDIKNPVEAMSTLKKFHKVTHVLTSGGQGNIVENIPVLTEMQKVSEGQIQLVAGAGVTKENIKRLLDETGITQAHVGTAVREGKSCFSEIDPNLVQELVEIIKLEHHHHHH | soluble
MLEYKLIRSKRRKTLALQVKHGQVTVRAPHYVTSAFIDTFIQEKSAWLRSKLAEQQKTPEYCDFSQGSNLLYLGEKVILNICIAKKSEVYFSHLVIAEIEPKNYQEITTKQLNVAISEKIHSRLINPLAISKQIKKQLEVYFKQQAEQLFSERLERISKQISLCPTAINIRQYRARWGSCNNRGEVSFNYLLMMTPLTVIDYVIVHELCHLEHLNHSKEFWHLVEKFCPNYEIAKKWLNTYQSLEHHHHHH | soluble
MLFLFVDGLGLGGALEDLFPFLLALAPTPLDATLGVEGLPQSGTGQTALLTGENAARLLGHHQGPFPSPRLRPLLAQGLYAWAKGKGLRVLHANGYRPDYLRRATEGKRLLLSAFAQAARLAGIPLLPLGHPLALLPGFWEDPYGAGAKAAALARAFDLVVLEYWALDLAAHRHPESLPDRFRELTLFLQGFLAEGGVLLLASDHGNAEEPWHPRHTLNPVPLVYTEEAPPPPEDLTGVFPWLRTIITSKTNKSDRNT | soluble
MLFLPILILNLLIITHAIDIIPREVLFQDPKYSSVSLSPDAKQVGYVAPDENGIRNVFTRCSSCSYSRQVTFETEHPILNYVWTAIPDVILFTQDNHGDENTRIYKKNISATAIAADKTQRVVISEKPMVKAMILSNNLISETVLIGMNDENPALHNIYAFNCQTDELKLVLQNRRFSIFFFDNDLNVRLASEEGPDGEMIYYRPRSNEGARTTEQNTWVEYLRIQHDDKAITMPITFDKSNNFMYWIMGDGSDLGNLVVFPFEDPQQKEILYTAQRAQIGNVLIHPTDKTLLAVTEVYHKPELFVANETFMEDLQYLVNMKPSGSMNIVSMSIDMSTWLVTYSSSDEPYDIYLYRRWNKKAELFMSTRPELKKYTLNKQIGFDFRARDEMTIQAYLSLPPQAPLLKSSQVPDGDRPYANLGMIPAVPQKMIVLVHGGPKARDHYGFSPMNAWLTNRGYSVLQVNFRGSTGFGKRLTNAGNGEWGRKMHFDILDAVEFAVSKGIANRSEVAVMGGSYGGYETLVALTFTPQTFACGVDIVGPSNLISLVQAIPPYWLGFRKDLIKMVGADISDEEGRQSLQSRSPLFFADRVTKPIMIIQGANDPRVKQAESDQFVAALEKKHIPVTYLLYPDEGHGVRKPQNSMEQHGHIETFLQQCLGGETQPFQPGQYNSSAIIKKIGIEGAAIARQNLQIAQNQFAQQLPRGPVAPSIFYRPPVRAQRVMLAPNQNVMNRIFPVQG | soluble
MLGAIIGDIVGSVYEWNNIKTKDFPLFRKDCFFTDDTVMTCAVAEAIMNGGQKDDFIDAMKKYGRMYPNADYGARFNAWLNSDNREPYNSFGNGSAMRISPCAWIMDCGFYAKTGIWPSSRGLTSLSAEVTHNHPEGVKGAMATADAIFLCRFYFGGYCREYEQSINDNPTECKRRIKDYIEKEYDYNLSQTLDEIRPNYRFNETCQETVPQAIIAFLESRDFEDAIRNAISLGGDSDTLAAITCSIAEAAYGIPDWIKDKAYSYLDEPLKDVVRRWENRIKAY | not soluble
MLGKDYMLAIILVNCDDDLWGDHSLEVEAGLPPGWRKIHDAAGTYYWHVPSGSTQWQRPTWELGDAEDPGTGTEGIWGLRPPKGRSFSSLESSLDRSNSLSWYGGESYIQSMEPGAKCFAVRSLGWVEVPEEDLAPGKSSIAVNNCIQQLAQTRSRSQPPDGAWGEGQNMLMILKKDAMSLVNPLDHSLIHCQPLVHIRVWGVGSSKGRDRDFAFVASDKDSCMLKCHVFCCDVPAKAIASALHGLCAQILSERVEVSGDASCCSPDPISPEDLPRQVELLDAVSQAAQKYEALYMGTLPVTKAMGMDVLNEAIGTLTARGDRNAWVPTMLSVSDSLMTAHPIQAEASTEEEPLWQCPVRLVTFIGVGRDPHTFGLIADLGRQSFQCAAFWCQPHAGGLSEAVQAACMVQYQKCLVASAARGKAWGAQARARLRLKRTSSMDSPGGPLPLPLLKGGVGGAGATPRKRGVFSFLDAFRLKPSLLHMP | soluble
MLGSLAAEKRSVFQTSCCVRYKGCMLGVGPTVWGVVWGLGCTVEARGLRKRFGGRTAVAGVSFSVGDGERACIMGPNGSGKTTLLRMVSGVLRPSGGSVRVCGYDVWGDGWREARGLIGFAPQDPPMARRMTGAEYITVVGGLLGLSPGVARREARRVLEMLGFEDVLGRVVARLSGGQRRALGIALALASNPEVVVLDEPGSGLDVRARESLWASLRKAFKGRTVLFSSHDPQEAEAESDRVLIMHRGRLAAWGKPRELIQRYAPKPRVRVWADRAPDGLEPVHTGPGFSDYLIEAPGDVARIASAYSGAGILVERIEVLKPSLREVFFAVTGEEMD | soluble
MLGVRMSGSVLDEEAEKLMDYDYLLEKLYKKVPPKSGTSEYRIPEPQIIRIGSQTVIRNFREIAQALKRDPKLVARYLQKELATAASYEEESGQLILNVKVSRKVVNQFLQLFMKTYVRCPTCGSIDTKLLRQERAYMLKCEACGAEQPVKPI | soluble
MLIFRTSPMSRREKSLPIEPKYTKPQANGSSFPPIFTLEGSTPCKKTARKLIDPVVNSVDSLCYLARKIVKMQEEKKRQKSNSFLIDYLVGDNFITEFREQPAQASPAVDVEDPMVSLVLGCPFGAIGQERRMSQDFPFQRRSFDMVSNRTSTSESSSCSSTDNTYKNAGKFLSLQEYLEQNNLLPPSTMPFGENSGFHGYNPQMNVHNNSTRNGNVENREQRNNSTSPPRGNPPHPLCCCFCFGTASEFARLHTLPAPRKDDRGPWSDHCSKKRGRVVCPKLRSMVCGICGATGDNAHTTKHHLEAFGDD | not soluble
MLISIESKEHYRILCIDGGSTDQTIPMIERLQRELKHISLIQLQNASIATCINKGLMDIKMTDPHDSDAFMVINPTSIVLPGKLDRLTAAFKNNDNIDMVIGQRAYNYHGEWKLKSADEFIKDNRIVTLTEQPDLLSMMSFDGKLFSAKFAELQCDETLANTYNHAILVKAMQKATDIHLVSQMIVGDNDIDTHATSNDEDFNRYIIEIMKIRQRVMEMLLLPEQRLLYSDMVDRILFNNSLKYYMNEHPAVTHTTIQLVKDYIMSMQHSDYVSQNMFDIINTVEFIGENWDREIYELWRQTLIQVGINRPTYKKFLIQLKGRKFAHRTKSMLKRLEHHHHHH | not soluble
MLITVYCVRRDLSEVTFSLQVSPDFELRNFKVLCEAESRVPVEEIQIIHMERLLIEDHCSLGSYGLKDGDIVVLLQKDNVGPRAPGRAPNQPRVDFSGIAVPGTSSSRPQHPGQQQQRTPAAQRSQGLASGEKVAGLQGLGGPALIRSMLLSNPHDLSLLKERNPPLAEALLSGSLETFSQVLMEQQREKALREQERLRLYTADPLDREAQAKIEEEIRQQNIEENMNIAIEEAPESFEQVTMLYINCKVNGHPLKAFVDSGAQMTIMSQACAERCNIMRLVDRRWAGVAKGVGTQRIIGRVHLAQIQIEGDFLQCSFSILEDQPMDMLLGLDMLRRHQCSIDLKKNVLVIGTTGTQTYFLPEGELPLCSRMVSGQDESSDKEITHSVMDSGRKEH | soluble
